Measurements reported in patent US20070042970A1, “Folate-modified cholesterol-bearing pullulan as a drug carrier” (priority 2005, published 2007).

What was measured:
[1] = format: physicochemical
Protocol: For example, 5.0 mg of FA-CHP can simply complex with 0.01 mg of DOX. Complexes of DOX with a mixture of FA-CHP and CHP are denoted as FA-CHP-CHP-DOX hereafter.

TIG-1-20 cells = assay: Cell counting experiment (trypan blue, hematocytometer); format: cell-based; conditions: 0.2 mg/L DOX; at least for 2 days; folate-depleted DMEM
Protocol: Cells of either KB or TIG-1-20 were plated in 6 well cultivation plates and preincubated for 2-3 days, and each cultivation medium was replaced with new one (1.98 ml) just before the addition of anticancer reagents (0.02 ml). At the time of the addition, cell densities were about 5×10^4/ml for TIG-1-20, and about 15×10^4/ml for KB (each ca. 20-25% of their confluent states). The additives mainly used were; Control 1: PBS, Control 2 (FC): FA-CHP (1 mg)-CHP (4 mg) complex solution in 1 ml PBS, DOX 1: 0.02 mg doxorubicin/ml-PBS, DOX 2: 0.03 mg doxorubicin/ml-PBS, FA-CHP-CHP-DOX 1 (FCD 1): FA-CHP (1 mg)-CHP (4 mg)-DOX (0.02 mg) in 1 ml PBS, FA-CHP-CHP-DOX 2 (FCD 2): FA-CHP (1 mg)-CHP (4 mg)-DOX (0.03 mg) in 1 ml PBS. Drug mixtures with other composition were also tested essentially by the same procedure.
The culture medium was removed to 15 ml centrifugation tube, and cells remained attached to the dish were removed with Sigma cell dissociation solution (non-enzymatic, in PBS) in the case of KB, and with 0.05% trypsin and 0.02% EDTA solution in the case of TIG-1-20. […] After mixing with pipetting, all cells were counted on improved Neubauer hematocytometer. Detached cells were also counted by the same procedure after adjusting the removed medium to 2 ml.

Row | Compound | solubility in PBS [1] | TIG-1-20 cell death / proliferation (cell number counting) (TIG-1-20 cells)
1 | folate modified cholesterol-bearing pullulan [FA-CHP] | easily soluble | 
2 | COc1cccc2c1C(=O)c1c(O)c3c(c(O)c1C2=O)C[C@@](O)(C(=O)CO)C[C@@H]3O[C@H]1C[C@H](N)[C@H](O)[C@H](C)O1 [DOX, Doxorubicin] |  | completely killed cell proliferation
